These results are taken from publication PMC12386978.

This assay concerns the target K151Q/R mutants. The assay is described as follows: split reporter (BiFC, NanoBiT); split-luciferase complementation; HEK293T cells co-transfected with NLuc-mCRY1 (wild-type or mutant) and a CLuc fusion of the partner; bioluminescence read 24 h after transfection in DMEM with 100 uM D-luciferin.

Sequence of CLuc-BMAL1 (Q9WTL8 whole entry): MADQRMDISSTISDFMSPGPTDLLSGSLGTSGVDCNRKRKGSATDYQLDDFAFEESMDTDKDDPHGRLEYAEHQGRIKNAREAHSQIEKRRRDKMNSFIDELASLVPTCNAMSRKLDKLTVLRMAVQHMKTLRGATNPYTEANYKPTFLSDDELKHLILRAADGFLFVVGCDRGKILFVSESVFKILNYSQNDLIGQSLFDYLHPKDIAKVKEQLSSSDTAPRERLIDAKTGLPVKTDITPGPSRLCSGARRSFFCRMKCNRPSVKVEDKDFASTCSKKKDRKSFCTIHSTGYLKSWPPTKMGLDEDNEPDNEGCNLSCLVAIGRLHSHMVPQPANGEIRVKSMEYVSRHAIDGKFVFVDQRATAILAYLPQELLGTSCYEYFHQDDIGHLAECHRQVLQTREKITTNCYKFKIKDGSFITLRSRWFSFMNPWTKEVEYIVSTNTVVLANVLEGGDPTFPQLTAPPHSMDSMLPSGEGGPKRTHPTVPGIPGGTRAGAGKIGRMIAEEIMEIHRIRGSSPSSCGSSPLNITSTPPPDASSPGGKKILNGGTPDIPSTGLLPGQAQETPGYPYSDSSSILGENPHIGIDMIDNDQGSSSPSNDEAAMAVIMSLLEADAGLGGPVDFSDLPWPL

For the substance “CLuc-BMAL1 (from UniProt Q9WTL8 1-632) (natural protein)”, the binding rate, percent of the wild type (% of the wild type) lay within 50 to 60.
